Measured values from the DeepSol protein solubility set.

test: soluble on expression in E. coli; label from the status in PepcDB or PDB records

| Sequence | soluble on expression in E. coli |
| --- | --- |
| MISAHCNLRLLCSSDSSASASQVAGTTEVVENLVTNDNSPNIPEAIDRLFSDIANINRESMAEIADIQIEEMAVNLWNWALTIGGGWLVNEEQKIRLHYVACKLLSMCEASFASEQSIQRLIMMNMRIGKEWLDAGNFLIADECFQAAVASLEQLYVKLIQRSSPEADLTMEKITVESDHFRVLSYQAESAVAQGDFQRASMCVLQCKDMLMRLPQMTSSLHHLCYNFGVETQKNNKYEESSFWLSQSYDIGKMDKKSTGPEMLAKVLRLLATNYLDWDDTKYYDKALNAVNLANKEHLSSPGLFLKMKILLKGETSNEELLEAVMEILHLDMPLDFCLNIAKLLMDHERESVGFHFLTIIHERFKSSENIGKVLILHTDMLLQRKEELLAKEKIEEIFLAHQTGRQLTAESMNWLHNILWRQAASSFEVQNYTDALQWYYYSLRFYSTDEMDLDFTKLQRNMACCYLNLQQLDKAKEAVAEAERHDPRNVFTQFYIFKIAVIEGNSERALQAIITLENILTDEESEDNDLVAERGSPTMLLSLAAQFALENGQQIVAEKALEYLAQHSEDQEQVLTAVKCLLRFLLPKIAEMPESEDKKKEMDRLLTCLNRAFVKLSQPFGEEALSLESRANEAQWFRKTAWNLAVQCDKDPVMMREFFILSYKMSQFCPSDQVILIARKTCLLMAVAVDLEQGRKASTAFEQTMFLSRALEEIQTCNDIHNFLKQTGTFSNDSCEKLLLLYEFEVRAKLNDPLLESFLESVWELPHLETKTFETIAIIAMEKPAHYPLIALKALKKALLLYKKEEPIDISQYSKCMHNLVNLSVPDGASNVELCPLEEVWGYFEDALSHISRTKDYPEMEILWLMVKSWNTGVLMFSRSKYASAEKWCGLALRFLNHLTSFKESYETQMNMLYSQLVEALSNNKGPVFHEHGYWSKSD | not soluble |
| MGSDKIHHHHHHMEGNLKHNNGYCVICEKEATFIEHNDWLRDHYLCSTCHSIPRQRALIHVLNTFFPKWDSYHIHESSPGGITTQLLIKNCKNYTYSQYFKNYPLGQYFQGIRCENLENMTFQDESFDLFITQDVFEHVMEPNKAFKEIERVLKPGGAHVFTVPWYHTLPKTLQRARINEDGIEYIEEPIYHGNPIDENGSLVTFDWGQDMIEYIYTHANMYTLVYLQKDKSLGLDAEFLHVFISRKQENNF | not soluble |
| MAVKGLGEVDQKYDGSKLRIGILHARWNRKIIDALVAGAVKRLQEFGVKEENIIIETVPGSFELPYGSKLFVEKQKRLGKPLDAIIPIGVLIKGSTMHFEYICDSTTHQLMKLNFELGIPVIFGVLTCLTDEQAEARAGLIEGKMHNHGEDWGAAAVEMATKFN | soluble |
| MAHHHHHHMRPGRLDKTIVVPLPDIKGRYEILKMYSSKIVLSKDVDLHVLSRRTVGMTGADLNNILNIAAIKCSVEGKKAVDMNSIEQAFDRVVVGLQRKSPLNEEEKNITAYHEGGHTLVNFYTKGSDPVHKATIMPRGMSLGVTWKIPISDKYSQKIRDVQSEIDILMGGLVSEEIIFGKNNVTTGCSSDLQRATHIAQSLVMNYGVGINEENISMFLQDKKNISEEMKIKIDKSIQRILLDSYNRAKKVLNQHIDELHRVASALVEYETLTSDEIKLAMQGKHDQIRKNRELKQKEFNLKDSRIS | not soluble |
| MSLGYGIRLLVWGEFACFTRPEMKVERVSYDVMTPSAARGILESIHWKPSIVWKIDKIHVLNEIRFDNVRRNEVGSKIPTGNVRKAMKGEPTLLCQYASEDRQQRATLLLRNVAYVIVAHFEMTSKAGPQDSPEKHYAIFSRRARQGQCFQQPYFGCREFPAKFRLIEEDEPTPHSLHKGDKDLGWMLLDIDHEDGMNPRFFRATMKDGLIEVPPMERGLTVLEGHHHHHH | soluble |
| MTSIDVTEIIKSSTSSLYQPARKKSRFDDSASSSSQAGQPKPEDILAALEADQSNYVALDDVQVKKLVIQLDKKMRLNREQRVKNPDDAQKFMESEIELDKAIQEMHSLASQPDLYGSFVEVNGVEILLQLLGHENTDIVCATLSLLRELTDDDVMNEGEDGAAELIESLVSGSIITTLLACVERLDESVKDEADGVHNALGVVDNMIGFRDDITEECVKHGFTVWLLKRCFQKGAFDANKMYASELLSVILQTSDTAKAKLTEKIDGIDILLRTIAVYKKNDPANVDEREYMENLFNSLCAALMHPANRKKFLDGEGLQLMNLMLREKKQARQSALKVLNHATSGDEGIENCNKLVEMLGLRTIFPLFMRTPSKTKRKDTTPDEHEEHVCTILSSLLAACSENHRQRIVQKFVEHEHEKVDRAVELFLKYKEKVQRFELKKKRQSQEAGTSEDDDPDRAYLDKLDNGLYTLQRLTLILGEVAVGVESARLREEKLFQMKMSQNRLDLMLCPIIQEYSDNLGDDANIEQERVLVMLSKIEDFYK | not soluble |
| MKYYRRALYDKFVHFYLVISDDGSSEAQLRGKMGGLVRKARKKISPDWPKEEQIHQLLQLFYGDWGFHCDPEDYFYARNLYLPYVFEHRQGMPVTLGAMVFYLAEALDLPIYPVNFPTQLILRAEVRDEVAFIDPWDGTYISQEKLQQLYEGAFGFGAKIQPEELDRADLSLLYSRFEQLAKNALIREEHNDMAYHYIKNLMITDAENPYHIRDRGLVLAQMGAYPSALKDLEFFVEHCPKDPTAAFIRTQLLELKGEINKDTFPLHLEHHHHHH | not soluble |
| MAQLMKRGFSTSAALAKAQLVKTPIQVHGVEGRYAAALYSAGHKQNKLDQISTDLNNVRSVYKDNKKFQEFVLDPTLKANKKKTAIEAISTKLGLTKETGNFLGLLAENGRLNKLESVVSSFESIMRAHRGELFVQVTSAEELSSSNQKALSDALSKIGKSGQKLTVTYAVKPSILGGLVVTIGDKYVDLSIASRVKKYKDALATAI | not soluble |
| MGSDKIHHHHHHMNGALDVLAPAEVIVAATAPADNEASDMPPVEIVLDSPPVSAEMVFDEDADLLDRLATDDEAAFRMLVERHIDRAYSIALRILGNSADAEDVVQDTMLKVWTHRGRWQHGRAKFSTWLYRVVSNRCIDLRRKPRTENVEAVPEVADTQPDAVRVIERNELSNLLEAAMQRLPEQQRIAVILSYHENMSNAEIAEVMDTTIAAVESLLKRGRQQLRARLSGDESELRAAFTDF | not soluble |
| MNLKQLEVFLAVAESGSFSRGAEATFLTQSTVSQHIAALESEVGVRLLDRTSRGALLTEGGKILLEHARKVVAGSREISKVMRRFRGLEEAELRIGGSTIPADYMIPAMLASFLGRHPGVQVTLLQGDSRDILDRIEREDAEVGIIGSRFDEEGFTFTPLGRDEIRLIAAPDHPLAGTGAVPLAELANHGFVFRELGSGTAKSVAEALAGAGLPAEKLHVRACLGSNEAVKQAVAAGLGLSFVSELSVRKELARGELVELPVEGLTIARTFYLVARTGRELSPPAVAFIGELTGTRLA | not soluble |
| MISTPLSKEFEWPAKPVSLELQHQVEQFYYREAQLLDHHAFQAWFALLAEDIHYWMPIRTVRTAREQGLEYVPAGANAHFDDTHATMYGRIRQKTSDLNWAEDPPSRTRHLVSNVIVREMDTPGTLEVASAFLLYRSRLERQVDVFAGERRDVLRIADNPLGFQIAKRTIILDQSTVLANNLSVFF | soluble |
| GMIDEKFLIESNELVESSKIVMVGTNGENGYPNIKAMMRLKHDGLKKFWLSTNTSTRMVERLKKNNKICLYFVDDNKFAGLMLVGTIEILHDRASKEMLWTDGCEIYYPLGIDDPDYTALCFTAEWGNYYRHLKNITFKIDEIYNY | soluble |
| MDFGALPPEINSTRMYAGAGAAPLMAAGATWNGLAVELSTTASSVESVIMQLTTEQWLGPASMSMVVAAQPYLAWLTYTAESAAHAAAQAMASAAAFEAAFAMTVPPAEVAANRALLAALVATNVLGQNTPAIMATEAHYGEMWAQDALAMYGYAASSAAAGRLNPLITPSQTANMAGLAGQAAAVSHAAAASTVQQVGLGSLISNLPNAVMGFASPLTSAADAAGLGGIIQDIEELLGITFVQNAINGAVNTTAWFVMATIPNAVFLGHAFAALNPATVTAAADAVPAAAAAAGLAHTVTPVGVGGASLTASLGEASSVGGLSVPAGWSTAAPAMTSGTTALEGSGWAVPEEAGPVAAMPGMAGISGAAKGAGAYAGPRYGFKPIVMPKQVVV | not soluble |
| AYTTFSQTKNDQLKEPMFFGQPVNVARYDQQKYDIFEKLIEKQLSFFWRPEEVDVSRDRIDYQALPEHEKHIFISNLKYQTLLDSIQGRSPNVALLPLISIPELETWVETWAFSETIHSRSFTHIIRNIVNDPSVVFDDIVTNEQIQKRAEGISSYYDELIEMTSYWHLLGEGTHTVNGKTVTVSLRELKKKLYLCLMSVNALEAIRAYVSFACSFAFAERELMEGNAKIIRLIARDEALHLTGTQHMLNLLRSGADDPEMAEIAEECKQECYDLFVQAAQQEKDWADYLFRDGSMIGLNKDILCQYVEYITNIRMQAVGLDLPFQTRSNPIPWINTWLVSDNVQVAPQEVEVSSYLVGQIDSEVDTDDLSNFQL | soluble |
| MTDALGELEADVRADLAMIAHPGAAWLEPKIGPDGKPALDVLVVGAGQSGIAIGFGLMRSRVSNILLLDKAEEGKEGPWLTYARMPTLRSPKDYTGPDLDIPSLTYQSWHEARFGKQSWQELGLIERGHWAEYLLWLRRTVGLPVRNACELLEIAPASDGLLTARVKRAGEVETLYARKIVLATGQEGMGGWMIPEPLRHLPSGSVATVADDIDFEKLRGKRVAVIGAGASAFDNAATALEAGAAEVHLLCRRTQIQVIQPYRWLTFRGFLRHLSDLDDAWRWRFMRTILEMREGFPQATYDRCARHANFTLHEGAPVEAARETGKGVELQTPRGAIPADFVICGTGIDMSFAGRGELAAFAGNIATWADRYQPPSSERNERLGRFPYLADDYAFTERVPGETPWISDIHLFAIASTMSFGPSGSSINAMTTAVPKLVHGLTRGLFRADIARHWASLSAYDVPQAVVTRPARKTGELEHHHHHH | soluble |
| PILYLHGFRSSPDSFKARLLAQAMHQRGLAGQWQCPQLPASPRQAAELALALAREQLAGQQDPRRLTVIGSSLGGYYATWLAERLGCQAVLLNPAVQAARDLATQVGEHRMYHSDAPFHFLPEYVEELRALYADPLTHPERYFLVAATGDEVLDWREMRDRYPGCRQRIVQGGDHGLSDFPRWMPEVLEFA | not soluble |
| MSRFVQDLSKAMSQDGASQFQEVILQELELSVKKELEKILTTAASHEFEHTKKDLDGFRKLFHRFLQEKGPSVDWGKIQRPPEDSIQPYEKIKARGLPDNISSVLNKLVVVKLNGGLGTSMGCKGPKSLIGVRNENTFLDLTVQQIEHLNKTYNTDVPLVLMNSFNTDEDTKKILQKYNHCRVKIYTFNQSRYPRINKESLLPIAKDVSYSGENTEAWYPPGHGDIYASFYNSGLLDTFIEEGKEYIFVSNIDNLGATVDLYILNHLMNPPNGKRCEFVMEVTNKTRADVKGGTLTQYEGKLRLVEIAQVPKAHVDEFKSVSKFKIFNTNNLWISLGAVKRLQEQNAIDMEIIVNPKTLDGGLNVIQLETAVGAAIKSFENSLGINVPRSRFLPVKTTSDLLLVMSNLYSLNAGSLTMSEKREFPTVPLVKLGSSFTKVQDYLRRFESIPDMLELDHLTVSGDVTFGKNVSLKGTVIIIANHGDRIDIPPGAVLENKIVSGNLRILDH | soluble |
| MGSDKIHHHHHHMSISLATISGRVHAGERISDEEALFLFESRDPLAVGELAAAVNRRRNGDRVFFNVNRHINHTNICVNRCSFCAFYRAADEPGAYLYDLEEIRNRAAEAHAQGATEIHIVGGLHPDLPFDFYLAMLRTVKEVSPDLHVKAFTAVEIEYLSRLAGLSTAETLTVLKEAGLGSLPGGGAEIFAPAVRNRLCPEKISGDKWLAIMEEVHRAGLKSNATMLYGHIESYADRVDHMRRLRELQDRTGGFQVFIPLAFQKDNNPLGHLKRPGPGGVDALLTLAVARIYLDNFANIKAYWVMLGVKIAQTSLAFGVNDLDGTVVEEKIGHDAGAASPQTMGRDEIVSLIRTAGRVPVERDTLYNELRVY | not soluble |
